Results published in the supplement of paper PMC7877785.
± gives the uncertainty stated by the source.

Experiment: self-splicing fitness, log relative to wild type (ln ratio); higher = more splicing; Tetrahymena group I intron in knt gene, E. coli kanamycin selection, DiMSum; sequences stand for … in CUCUCU…GGAGGGAAAAGUUAUCAGGCAUGCACCUGGUAGCUAGUCUUUAAACCAAUAGAUUGCAUCGGUUUAAAAGGCAAGACCGUCAAAUUGCGGGAAAGGGGUCAACAGCCGUUCAGUACCAAGUCUCAGGGGAAACUUUGAGAUGGCCUUGCAAAGGGUAUGGUAAUAAGCUGACGGACAUGGUCCUAACCACGCAGCCAAGUCCUAAGUCAACAGAUCUUCUGUUGAUAUGGAUGCAGUUCACAGACUAAAUGUCGGUCGGGGAAGAUGUAUUCUUCUCAUAAGAUAUAGUCGGACCUCUCCUUAAUGGGAGCUAGCGGAUGAAGUGAUGCAACACUGGAGCCGCUGGGAACUAAUUUGUAUGCGAAAGUAUAUUGAUUAGUUUUGGAGUACUCGUGGUCG
How it was run: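 Six replicate transformations of E. coli BL21(DE3) with a pET-22b(+) library were grown overnight at 37°C or 30°C. The library randomised all eight P1ex-region intron nucleotides, the intron lying in the knt kanamycin-resistance gene, and plates were LB agar with or without 25 μg/mL kanamycin plus 100 μg/mL carbenicillin, 50 μM IPTG and 0.2% rhamnose. Pooled colonies were amplicon-sequenced on an Illumina HiSeq 2500, and fitness is the DiMSum error-weighted combination of wild-type-normalised replicate fold changes, kanamycin versus none.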

Sequence	self-splicing fitness (ln) (30 °C)	self-splicing fitness (ln) (37 °C)
GCGUAGCAAUAUUACGAAUC	-1.05 ± 0.17	-0.37 ± 0.2
CGUAAGCAAUAUUACGUGCA	-0.906 ± 0.086	0.102 ± 0.096
UCUAAGCAAUAUUACGCAUG	-1.88 ± 0.095	-2.07 ± 0.12
AUUGAGCAAUAUUACGUCUC		-2.21 ± 0.42
CUUUAGCAAUAUUACGUACG	-0.271 ± 0.098	0.109 ± 0.12
AGUGAGCAAUAUUACGAGAA	-1.8 ± 0.48	
AGGGAGCAAUAUUACGAAGU	-2.4 ± 0.37	-2.14 ± 0.32
GUACAGCAAUAUUACGUUCC	-3.44 ± 0.15	-3.48 ± 0.42
UGUGAGCAAUAUUACGGUUG	-2.98 ± 0.19	-2.17 ± 0.23
CCUAAGCAAUAUUACGUGAU	-4.46 ± 0.23	-2.71 ± 0.21
AGCCAGCAAUAUUACGUCAU	-2.29 ± 0.12	-0.981 ± 0.15
GGAUAGCAAUAUUACGAUCG	-0.534 ± 0.095	0.652 ± 0.14
GCGUAGCAAUAUUACGAUCU	-1.34 ± 0.17	-0.0119 ± 0.18
CAUCAGCAAUAUUACGCAGC	-3.35 ± 0.14	-1.29 ± 0.12
CUUCAGCAAUAUUACGUUGU	-3.52 ± 0.18	-2.92 ± 0.28
CCCGAGCAAUAUUACGACAU	-3.865 ± 0.026	-2.88 ± 0.041
UCUCAGCAAUAUUACGAAUC	-3.99 ± 0.39	-2.58 ± 0.22
CUUAAGCAAUAUUACGUAUC		-2.98 ± 0.33
ACCAAGCAAUAUUACGUACU	-0.582 ± 0.049	-0.135 ± 0.071
ACAGAGCAAUAUUACGCCUA	-1.68 ± 0.23	-1.93 ± 0.22
GCAUAGCAAUAUUACGUUGU	-3.21 ± 0.17	-2.74 ± 0.19
CUGUAGCAAUAUUACGUGAG	-1.31 ± 0.072	-0.935 ± 0.096
ACGCAGCAAUAUUACGUCGG	-1.23 ± 0.067	-1.14 ± 0.1

Sequence	self-splicing fitness (ln) (30 °C)	self-splicing fitness (ln) (37 °C)
GGGGAGCAAUAUUACGGAGG		-1.4 ± 0.35
UAUGAGCAAUAUUACGCGAG	-2.87 ± 0.17	-0.834 ± 0.08
UCUUAGCAAUAUUACGAAAA		-0.128 ± 0.34
ACUAAGCAAUAUUACGCCCG	-0.735 ± 0.14	0.678 ± 0.19
GCUAAGCAAUAUUACGGAGC		-2.4 ± 0.34
UUUAAGCAAUAUUACGUGGC	-3.77 ± 0.23	-3.57 ± 0.29
CAAAAGCAAUAUUACGAUUG	-2.75 ± 0.087	-1.82 ± 0.1
UUGUAGCAAUAUUACGCAAC	-2.57 ± 0.41	
ACUAAGCAAUAUUACGCACC	-0.776 ± 0.12	-0.198 ± 0.13
UGCUAGCAAUAUUACGUAUC		-2.07 ± 0.38
GUCCAGCAAUAUUACGGGAU	-4.04 ± 0.2	-2.76 ± 0.22
UGUCAGCAAUAUUACGUGAC	-2.8 ± 0.21	-2.81 ± 0.26
UUGCAGCAAUAUUACGGAAU	-2.83 ± 0.3	
AAUGAGCAAUAUUACGCAUG	-2.58 ± 0.17	-0.519 ± 0.12
AGUAAGCAAUAUUACGCGAG	-3.33 ± 0.21	-1.75 ± 0.15
GCACAGCAAUAUUACGAAAC	-0.701 ± 0.088	-0.265 ± 0.12
AGACAGCAAUAUUACGAUUA	-1.15 ± 0.062	-0.971 ± 0.086
AGUCAGCAAUAUUACGGGGG	-3.61 ± 0.21	-2.6 ± 0.22
AUUAAGCAAUAUUACGGAGA	-2.53 ± 0.19	-3.25 ± 0.32
UAGCAGCAAUAUUACGGACU	-1.07 ± 0.1	-0.713 ± 0.15
CAUGAGCAAUAUUACGGCGU	-3.61 ± 0.47	-1.97 ± 0.34
CGCAAGCAAUAUUACGCUGU	-3.81 ± 0.24	-1.48 ± 0.16
AUCGAGCAAUAUUACGUAAC	-3.15 ± 0.43	

Sequence	self-splicing fitness (ln) (30 °C)	self-splicing fitness (ln) (37 °C)
UAUAAGCAAUAUUACGCCUG	-0.378 ± 0.13	0.297 ± 0.16
UCGCAGCAAUAUUACGCAAC		-2.8 ± 0.17
GGUUAGCAAUAUUACGUGCA	-0.869 ± 0.19	-0.121 ± 0.18
GCGCAGCAAUAUUACGCCGA	-0.753 ± 0.49	-1.27 ± 0.28
ACUUAGCAAUAUUACGAUCA	-1.45 ± 0.14	-0.47 ± 0.13
AAGCAGCAAUAUUACGUCCC	-1.01 ± 0.15	-0.803 ± 0.2
CUGAAGCAAUAUUACGGGUU	-3.71 ± 0.21	-2.77 ± 0.22
UAAUAGCAAUAUUACGGACG	-0.227 ± 0.12	0.175 ± 0.15
CGCGAGCAAUAUUACGAGGG	-3.3 ± 0.22	-2.71 ± 0.22
GCCGAGCAAUAUUACGUUGU	-2.48 ± 0.12	-1.54 ± 0.12
GGCCAGCAAUAUUACGAAUU	-3.05 ± 0.19	-1.03 ± 0.11
UUAUAGCAAUAUUACGACGU	-3.45 ± 0.25	-1.14 ± 0.16
AGAUAGCAAUAUUACGGUCC	-1.27 ± 0.14	-1.03 ± 0.18
UACAAGCAAUAUUACGGAGU	-4.15 ± 0.29	-1.71 ± 0.16
ACCUAGCAAUAUUACGGAUU	-1.23 ± 0.072	0.134 ± 0.088
AGGAAGCAAUAUUACGCCCG	-0.151 ± 0.17	-0.394 ± 0.2
CCCCAGCAAUAUUACGGUCA	-2.71 ± 0.16	-0.931 ± 0.13
AUCAAGCAAUAUUACGGUGG	-3.54 ± 0.19	-2.63 ± 0.2
GGGCAGCAAUAUUACGAGGA		-2.97 ± 0.47
UGCUAGCAAUAUUACGACCG	-0.534 ± 0.17	-0.458 ± 0.19
UACUAGCAAUAUUACGCAAG	-2.98 ± 0.33	-1.72 ± 0.24
UGUCAGCAAUAUUACGCGUG	0.623 ± 0.069	0.117 ± 0.098
CGAAAGCAAUAUUACGCGUC		-0.242 ± 0.19

Sequence	self-splicing fitness (ln) (30 °C)	self-splicing fitness (ln) (37 °C)
CGAAAGCAAUAUUACGCCGC		-2.13 ± 0.36
GCCUAGCAAUAUUACGGGCU	-3.65 ± 0.23	-2.07 ± 0.24
CCAGAGCAAUAUUACGCAAG	-2.15 ± 0.19	-2.33 ± 0.29
GCCCAGCAAUAUUACGUUAU	-1.17 ± 0.079	-1.29 ± 0.1
CGCCAGCAAUAUUACGAUGC	-3.51 ± 0.38	-1.75 ± 0.2
UUGUAGCAAUAUUACGUAUA	-2.1 ± 0.17	-0.709 ± 0.15
UUCUAGCAAUAUUACGUCGU	-3.47 ± 0.26	-2.19 ± 0.17
UGAUAGCAAUAUUACGUCUU	-1.22 ± 0.092	-1.33 ± 0.09
GGCAAGCAAUAUUACGUAAC	-0.613 ± 0.064	-0.533 ± 0.089
AACAAGCAAUAUUACGCUUG	-2.82 ± 0.12	-2.28 ± 0.16
GGUCAGCAAUAUUACGGUUU	-0.421 ± 0.074	0.264 ± 0.099
CAAGAGCAAUAUUACGCUUG		-2.99 ± 0.47
AAAAAGCAAUAUUACGACUU	0.0987 ± 0.065	-0.391 ± 0.085
GGCGAGCAAUAUUACGGCCG	-2.11 ± 0.16	-0.882 ± 0.2
GAACAGCAAUAUUACGCCUU	-0.755 ± 0.13	0.356 ± 0.14
UCGAAGCAAUAUUACGCCAG	-2.24 ± 0.25	-2.09 ± 0.42
CUGCAGCAAUAUUACGACUA	-1.58 ± 0.13	-1.09 ± 0.12
UAACAGCAAUAUUACGAUCA	-0.292 ± 0.074	0.115 ± 0.07
AGUUAGCAAUAUUACGACAC	-0.65 ± 0.12	0.204 ± 0.2
GUAAAGCAAUAUUACGCCGG	-1.27 ± 0.13	0.13 ± 0.17
CCGCAGCAAUAUUACGCGCA	-3.08 ± 0.27	-1.41 ± 0.16
UGAUAGCAAUAUUACGACUC	-3.07 ± 0.21	-1.46 ± 0.18
GAGUAGCAAUAUUACGGUGU	-2.71 ± 0.11	-2.35 ± 0.18
